# Results as given in paper PMC5018210 (Nature, 2016).
# Biological target: the molecule itself
# Experiment: SEC-MALS
protein,measurement,value
"MHV S ectodomain trimer (murine hepatitis virus spike glycoprotein ectodomain, R717S, fused to a GCN4 trimerization motif) (domain or fragment) YIGDFRCIQLVNSNGANVSAPSISTETVEVSQGLGTYYVLDRVYLNATLLLTGYYPVDGSKFRNLALRGTNSVSLSWFQPPYLNQFNDGIFAKVQNLKTSTPSGATAYFPTIVIGSLFGYTSYTVVIEPYNGVIMASVCQYTICQLPYTDCKPNTNGNKLIGFWHTDVKPPICVLKRNFTLNVNADAFYFHFYQHGGTFYAYYADKPSATTFLFSVYIGDILTQYYVLPFICNPTAGSTFAPRYWVTPLVKRQYLFNFNQKGVITSAVDCASSYTSEIKCKTQSMLPSTGVYELSGYTVQPVGVVYRRVANLPACNIEEWLTARSVPSPLNWERKTFQNCNFNLSSLLRYVQAESLFCNNIDASKVYGRCFGSISVDKFAVPRSRQVDLQLGNSGFLQTANYKIDTAATSCQLHYTLPKNNVTINNHNPSSWNRRYGFNDAGVFGKNQHDVVYAQQCFTVRSSYCPCAQPDIVSPCTTQTKPKSAFVNVGDHCEGLGVLEDNCGNADPHKGCICANNSFIGWSHDTCLVNDRCQIFANILLNGINSGTTCSTDLQLPNTEVVTGICVKYDLYGITGQGVFKEVKADYYNSWQTLLYDVNGNLNGFRDLTTNKTYTIRSCYSGRVSAAFHKDAPEPALLYRNINCSYVFSNNISREENPLNYFDSYLGCVVNADNRTDEALPNCDLRMGAGLCVDYSKSRRAHSSVSTGYRLTTFEPYTPMLVNDSVQSVDGLYEMQIPTNFTIGHHEEFIQTRSPKVTIDCAAFVCGDNTACRQQLVEYGSFCVNVNAILNEVNNLLDNMQLQVASALMQGVTISSRLPDGISGPIDDINFSPLLGCIGSTCAEDGNGPSAIRGRSAIEDLLFDKVKLSDVGFVEAYNNCTGGQEVRDLLCVQSFNGIKVLPPVLSESQISGYTTGATAAAMFPPWSAAAGVPFSLSVQYRINGLGVTMNVLSENQKMIASAFNNALGAIQDGFDATNSALGKIQSVVNANAEALNNLLNQLSNRFGAISASLQEILTRLEAVEAKAQIDRLINGRLTALNAYISKQLSDSTLIKVSAAQAIEKVNECVKSQTTRINFCGNGNHILSLVQNAPYGLYFIHFSYVPISFTTANVSPGLCISGDRGLAPKAGYFVQDDGEWKFTGSSYYYPEPITDKNSVIMSSCAVNYTKAPEVFLNTSIPNPPDFKEELDKWFKNQTSIAPDLSLDFEKLNVTLLDLIKRMKQIEDKIEEIESKQKKIENEIARIKKIKLVPRGSLE",stoichiometry N,3
